The target in experiment [1] is HAstV1 capsid spike, biotinylated (human astrovirus 1 (HAstV1)) (UniProt O12792). In words: BLI; competition: biotinylated HAstV1 spike (0.5 ug/mL) on streptavidin biosensors, saturated with 150 nM Fab 3H4 or 250 nM Fab 3B4 for 600 s, then dipped into 2 uM FcRn for 300 s; Octet Kinetics Buffer; FcRn shift normalised to FcRn on spike without Fab (100%) and to self-Fab control (0%); triplicate.

The target of experiment [2] is T1, HAstV1 capsid spike, histidine-tagged (Human astrovirus 1 (HAstV1), GenBank …).
T1 construct: also called HAstV1 spike; histidine-tagged HAstV1 spike
T1 chain: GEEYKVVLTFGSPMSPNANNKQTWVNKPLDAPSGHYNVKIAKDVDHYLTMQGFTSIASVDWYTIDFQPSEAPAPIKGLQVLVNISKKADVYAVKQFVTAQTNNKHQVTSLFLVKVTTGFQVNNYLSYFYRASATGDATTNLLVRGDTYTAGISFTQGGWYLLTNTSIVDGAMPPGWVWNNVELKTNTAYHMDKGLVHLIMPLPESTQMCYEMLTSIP
In words: BLI; histidine-tagged HAstV1 spike (0.5 ug/mL) loaded on Anti-Penta-His (HIS1K) biosensors; Fab in solution (3H4: 2.5, 5, 10, 20 nM; 3B4: 20, 40, 80, 160 nM); Octet Kinetics Buffer (PBS pH 7.4 + 0.1% BSA + 0.02% Tween 20); association 180 s, dissociation 600 s; global 1:1 fit; average of three replicates. The following applies: both partners purified.

The values below come from paper PMC11852706, “Discovery of three novel neutralizing antibody epitopes on the human astrovirus capsid spike and mechanistic insights into virus neutralization” (Journal of Virology, 2025).

B1: Fab 3H4 (Fab, V domains shown)
VH: QVQLKESGPGLVAPSQSLSISCTVSGFSLTTFGIHWIRQPPGKGLEWLGVIWAAGTTNYNSTLKSRLTITKDNSRSQVFLKMNSLQTYDTAIYYCVREDYDYFFGLDYWGQGTSVTVSS
VL: QAVVTQESALTTSPGETVTLTCRSSTGAVTTSNYASWVQEKPDHLFIGLIGGTNNRAPGVPARFSGSLIGDKAALTITGAQTDDEAIYFCALWFSNHWVFGGGTKLTVL
notes: source: CHO-S, electroporated, purified from supernatant (StrepTrap HP)
Take B1: the FcRn binding (%) left on spike saturated with the Fab in experiment [1] was 4%. Further, the Kd in experiment [2] amounted to 0.49 nM.

B2: Fab 3B4 (Fab, V domains shown)
VH: QVQLHQPGAELVKPGASVNLSCKASGYTFTSYWMHWVKQRPGQGLEWIGEINPSSGRANYNEKFKNKATLTVDKSSITAYMHLSSLTSEDSAVYYCHWDYYAMDYWGQGTSVTVSS
VL: DIVLTQSPATLSVTPGDSVSLSCRASQSISNNLHWYQQKSHESPRLLFKSASQSISGIPSRFSGSGSGTDFTLSINSVETEDFGMYFCQQTNSWPLTFGTGTKLDLK
notes: as for B1
For B2, the FcRn binding (%) left on spike saturated with the Fab in experiment [1] turned out to be 40%. Moreover, in experiment [2], the Kd is 11.8 nM.
